T1: human glucose-dependent insulinotropic polypeptide (GIP) receptor (human) (UniProt P48546)
T1 sequence (looked up): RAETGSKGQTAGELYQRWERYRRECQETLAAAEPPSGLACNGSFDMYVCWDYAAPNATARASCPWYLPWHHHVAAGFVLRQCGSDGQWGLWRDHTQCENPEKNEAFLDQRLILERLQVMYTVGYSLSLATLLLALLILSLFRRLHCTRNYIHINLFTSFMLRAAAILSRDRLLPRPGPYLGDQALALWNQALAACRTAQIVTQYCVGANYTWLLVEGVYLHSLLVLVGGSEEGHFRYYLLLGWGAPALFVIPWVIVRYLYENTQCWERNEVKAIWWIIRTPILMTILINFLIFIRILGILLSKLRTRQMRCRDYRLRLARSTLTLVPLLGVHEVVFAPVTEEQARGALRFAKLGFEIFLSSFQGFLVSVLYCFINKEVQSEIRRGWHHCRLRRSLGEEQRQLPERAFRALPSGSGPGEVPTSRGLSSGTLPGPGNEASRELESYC

T2: human GIP receptor (human, UniProt P48546 22-466)
T2 sequence (looked up): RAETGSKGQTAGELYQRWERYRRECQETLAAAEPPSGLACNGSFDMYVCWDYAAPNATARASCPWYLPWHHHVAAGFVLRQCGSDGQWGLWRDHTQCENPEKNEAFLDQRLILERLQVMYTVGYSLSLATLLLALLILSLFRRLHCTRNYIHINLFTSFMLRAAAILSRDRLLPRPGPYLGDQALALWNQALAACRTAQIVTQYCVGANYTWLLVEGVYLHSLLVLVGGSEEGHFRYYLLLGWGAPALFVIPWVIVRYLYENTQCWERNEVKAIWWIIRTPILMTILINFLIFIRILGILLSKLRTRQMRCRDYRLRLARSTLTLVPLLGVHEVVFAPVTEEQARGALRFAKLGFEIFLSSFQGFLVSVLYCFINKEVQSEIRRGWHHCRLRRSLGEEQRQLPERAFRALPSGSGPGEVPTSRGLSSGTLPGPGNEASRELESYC

T3: human GIP receptor (human, UniProt P48546 22-466)
T3 sequence (looked up): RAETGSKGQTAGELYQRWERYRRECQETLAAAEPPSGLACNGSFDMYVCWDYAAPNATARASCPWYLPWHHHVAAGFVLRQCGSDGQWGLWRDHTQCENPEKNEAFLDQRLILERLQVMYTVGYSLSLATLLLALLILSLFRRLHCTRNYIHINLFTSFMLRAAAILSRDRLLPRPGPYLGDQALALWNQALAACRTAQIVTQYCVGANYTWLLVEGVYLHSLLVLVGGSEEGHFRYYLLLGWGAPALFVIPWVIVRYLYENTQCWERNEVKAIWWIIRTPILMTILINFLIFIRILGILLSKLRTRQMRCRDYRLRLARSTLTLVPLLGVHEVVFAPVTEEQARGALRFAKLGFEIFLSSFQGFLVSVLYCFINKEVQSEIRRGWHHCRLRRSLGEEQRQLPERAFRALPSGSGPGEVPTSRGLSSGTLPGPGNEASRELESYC


Tests used:
Test in all cases: cell-based or functional assay
[1] = molecular target: T1, human glucose-dependent insulinotropic polypeptide (GIP) receptor (human)
[2] = molecular target: human glucagon receptor (human) (UniProt P47871)
[3] = molecular target: human glucagon-like peptide-1 (GLP-1) receptor (human) (UniProt P43220)
human GLP-1 receptor [4] = molecular target: human GLP-1 receptor (human, UniProt P43220 24-463)
human GIP receptor [5] = molecular target: T2, human GIP receptor
human glucagon receptor [6] = molecular target: human glucagon receptor (human, UniProt P47871 26-477)
human GIP receptor [7] = molecular target: T3, human GIP receptor; remark: listed apart in the source
human GLP-1 receptor [8] = molecular target: human GLP-1 receptor (human, UniProt P43220 24-463); remark: listed apart in the source
human glucagon receptor [9] = molecular target: human glucagon receptor (human, UniProt P47871 26-477); remark: listed apart in the source

| Binder | cAMP EC50 [1] [nM] | cAMP Emax [1] [%] | cAMP EC50 [2] [nM] | cAMP EC50 [3] [nM] | cAMP Emax [3] [%] | cAMP EC50 (1.0% HSA) (human GLP-1 receptor [4]) [nM] | cAMP Emax (1.0% HSA) (human GLP-1 receptor [4]) [%] | cAMP EC50 (1.0% HSA) (human GIP receptor [5]) [nM] | cAMP Emax (1.0% HSA) (human GIP receptor [5]) [%] | cAMP EC50 (1.0% HSA) (human glucagon receptor [6]) [nM] | cAMP EC50 (human GIP receptor [7]) [nM] | cAMP EC50 (human GLP-1 receptor [8]) [nM] | cAMP EC50 (human glucagon receptor [9]) [nM] |
| --- | --- | --- | --- | --- | --- | --- | --- | --- | --- | --- | --- | --- | --- |
| YXEGTXTSDYXIXLDXIAQXKFIXXLIEGGPSSGAPPPSK (Y-Aib-EGT-aMeF(2F)-TSDY-Aib-I-aMeL-LD-Orn-IAQ-Aib-K((2-[2-(2-Amino-ethoxy)-ethoxy]-acetyl)2-(γ-Glu)-CO-(CH2)12-CO2H)FI-(D-Glu)-αMeY-LIEGGPSSGAPPPSK((2-[2-(2-Amino-ethoxy)-ethoxy]-acetyl)2-(γ-Glu)-CO-(CH2)12-CO2H)-NH2) [Example 235] | 0.0168 | 99.3 | > 9950 | 0.295 | 104 | 598 | 152 | 10.1 | 92.2 | > 9950 |  |  |  |
| YXEGTXTSDXXIXLDXKAQXEFIXXLIEGGPSSGAPPPSK (Y-Aib-EGT-αMeF(2F)-TSD-4Pal-Aib-I-αMeL-LD-Orn-K((2-[2-(2-Amino-ethoxy)-ethoxy]-acetyl)2-(γ-Glu)-(10-(4-carboxyphenoxy)decanoyl))AQ-Aib-EFI-(D-Glu)-αMeY-LIEGGPSSGAPPPSK((2-[2-(2-Amino-ethoxy)-ethoxy]-acetyl)2-(γ-Glu)-(10-(4-carboxyphenoxy)decanoyl))-NH2) [Example 245] | 0.0195 | 96.7 | > 9950 | 1.88 | 88.9 | 27 | 93.8 | 0.552 |  | > 9950 |  |  |  |
| YXEGTXTSDXXIXLDXIAQXKFIXXLIEGGPSSGAPPPSK (Y-Aib-EGT-αMeF(2F)-TSD-4Pal-Aib-I-αMeL-LD-Orn-IAQ-Aib-K((2-[2-(2-Amino-ethoxy)-ethoxy]-acetyl)2-(γ-Glu)-(10-(4-carboxyphenoxy)decanoyl))FI-(D-Glu)-αMeY-LIEGGPSSGAPPPSK((2-[2-(2-Amino-ethoxy)-ethoxy]-acetyl)2-(γ-Glu)-(10-(4-carboxyphenoxy)decanoyl))-NH2) [Example 248] | 0.0176 | 99.2 | > 9950 | 0.537 | 89.1 | 56.7 | 92.7 | 4.1 | 91.8 | > 9950 |  |  |  |
| YXEGTXTSDXSIXLDXKAQXEFIXXLIEGGPSSGAPPPSK (Aib2, αMeF(2F)6, OMeY10, αMeL13, Orn16, Aib20, D-Glu24, αMeY25; K17 and K40: AEEA2-(γ-Glu)-CO-(CH2)10-CH3; C-terminal NH2) [Example 291] |  |  |  |  |  |  |  |  |  |  | 0.012 | 0.207 | > 9950 |
| YXEGTXTSDXXIXLDXIAQXKFIXXLIEGGPSSGAPPPSK (Y-Aib-EGT-αMeF(2F)-TSD-4Pal-Aib-I-αMeL-LD-Orn-IAQ-Aib-K(2-[2-(2-Amino-ethoxy)-ethoxy]-acetyl)2-(γ-Glu)-(11-(4-carboxyphenoxy)undecanoyl)FI-(D-Glu)-αMeY-LIEGGPSSGAPPPSK((2-[2-(2-Amino-ethoxy)-ethoxy]-acetyl)2-(γ-Glu)-(11-(4-carboxyphenoxy)undecanoyl)-NH2)) [Example 242] | 0.0197 | 100 | > 9950 | 0.584 | 96.3 | 214 | 102 | 11 | 83.9 | > 9950 |  |  |  |
| YXEGTXTSDYXIXLDXKAQXEFIXXLIEGGPSSGAPPPSK (Y-Aib-EGT-αMeF(2F)-TSDY-Aib-I-αMeL-LD-Orn-K((2-[2-(2-Amino-ethoxy)-ethoxy]-acetyl)2-(γ-Glu)-(10-(4-carboxyphenoxy)decanoyl))AQ-Aib-EFI-(D-Glu)-αMeY-LIEGGPSSGAPPPSK((2-[2-(2-Amino-ethoxy)-ethoxy]-acetyl)2-(γ-Glu)-(10-(4-carboxyphenoxy)decanoyl))-NH2) [Example 238] | 0.0214 | 104 | > 9950 | 1.03 | 107 | 27.2 | 103 | 1.31 |  | > 9950 |  |  |  |
| YXEGTXTSDYXIXLDXIAQXKFIXXLIEGGPSSGAPPPSK (Y-Aib-EGT-αMeF(2F)-TSDY-Aib-I-αMeL-LD-Orn-IAQ-Aib-K((2-[2-(2-Amino-ethoxy)-ethoxy]-acetyl)2-(γ-Glu)-(10-(4-carboxyphenoxy)decanoyl))FI-(D-Glu)-αMeY-LIEGGPSSGAPPPSK((2-[2-(2-Amino-ethoxy)-ethoxy]-acetyl)2-(γ-Glu)-(10-(4-carboxyphenoxy)decanoyl))-NH2) [Example 241] | 0.0213 | 105 | > 9950 | 0.362 | 91 | 103 | 105 | 8.02 | 84.9 | > 9950 |  |  |  |
| YXEGTXTSDYXIXLDXIAQXKFIXXLIKGGPSSGAPPPS (Y-Aib-EGT-αMeF(2F)-TSDY-Aib-I-αMeL-LD-Orn-IAQ-Aib-K((2-[2-(2-Amino-ethoxy)-ethoxy]-acetyl)2-(γ-Glu)-CO-(CH2)12-CO2H)Fl-(D-Glu)-αMeY-LIK((2-[2-(2-Amino-ethoxy)-ethoxy]-acetyl)2-(γ-Glu)-CO-(CH2)12-CO2H)GGPSSGAPPPS-NH2) [Example 234] | 0.0182 | 107 | > 9950 | 0.319 | 112 | 156 | 102 | 7.58 | 84.4 | > 9950 |  |  |  |
| YXEGTXTSDXSIXLDXKAQXEFIXXLIKGGPSSGAPPPS (Aib2, αMeF(2F)6, hTyr10, αMeL13, Orn16, Aib20, D-Glu24, αMeY25; K17 and K28: AEEA2-(γ-Glu)-(10-(4-carboxyphenoxy)decanoyl); C-terminal NH2) [Example 327] |  |  |  |  |  |  |  |  |  |  | 0.018 | 0.211 | > 9950 |

Reference: patent US20230265151A1, “GIP/GLP1 CO-AGONIST COMPOUNDS” (priority 2020, published 2023)
